Measurements published in the RNAGym collection of RNA variant scans (doi:10.1021/acssynbio.7b00057).

B1: Pistol ribozyme (parent)
chain: GGGUCGUUGUUCCAUAAUCGCGUGGAUAUGGCACGCAAGUUUCUACCGGGCACCGUAAAUGUCCGACUGGAGCCGUUCGGGCGGCUAUAAACAGACCUCAGGCCCGAAGCGUGGCGGCACCUGCCGCCGGUGGUAAAAAAGAUCGGAAGAGCACACGUCU

Variants of: B1
Test: aptazyme ON/OFF ratio, guanine; higher = stronger switching; co-transcriptional cleavage with and without guanine

Variant | aptazyme ON/OFF ratio
GGGUCGGCAAUUCAUAAUCGCGUGGAUAUGGCACGCAAGUUUCUACCGGGCACCGUAAAUGUCCGACUGGAGCCGUUCGGGCGGCUAUAAACAGACCUCAGGCCCGAAGCGUGGCGGCACCUGCCGCCGGUGGUAAAAAAGAUCGGAAGAGCACACGUCU [U7G U8C G9A U10A C12U] | 1.62
GGGUCGGCAAUUAAUAAUCGCGUGGAUAUGGCACGCAAGUUUCUACCGGGCACCGUAAAUGUCCGACUGGAGCCGUUCGGGCGGCUAUAAACAGACCUCAGGCCCGAAGCGUGGCGGCACCUGCCGCCGGUGGUAAAAAAGAUCGGAAGAGCACACGUCU [U7G U8C G9A U10A C12U C13A] | 1.15
GGGUCGGCAAUUUAUAAUCGCGUGGAUAUGGCACGCAAGUUUCUACCGGGCACCGUAAAUGUCCGACUGGAGCCGUUCGGGCGGCUAUAAACAGACCUCAGGCCCGAAGCGUGGCGGCACCUGCCGCCGGUGGUAAAAAAGAUCGGAAGAGCACACGUCU [U7G U8C G9A U10A C12U C13U] | 1.05
GGGUCGGCAAUUGAUAAUCGCGUGGAUAUGGCACGCAAGUUUCUACCGGGCACCGUAAAUGUCCGACUGGAGCCGUUCGGGCGGCUAUAAACAGACCUCAGGCCCGAAGCGUGGCGGCACCUGCCGCCGGUGGUAAAAAAGAUCGGAAGAGCACACGUCU [U7G U8C G9A U10A C12U C13G] | 1.13
GGGUCGGCAAACCAUAAUCGCGUGGAUAUGGCACGCAAGUUUCUACCGGGCACCGUAAAUGUCCGACUGGAGCCGUUCGGGCGGCUAUAAACAGACCUCAGGCCCGAAGCGUGGCGGCACCUGCCGCCGGUGGUAAAAAAGAUCGGAAGAGCACACGUCU [U7G U8C G9A U10A U11A] | 3.25
GGGUCGGCAAAAAAUAAUCGCGUGGAUAUGGCACGCAAGUUUCUACCGGGCACCGUAAAUGUCCGACUGGAGCCGUUCGGGCGGCUAUAAACAGACCUCAGGCCCGAAGCGUGGCGGCACCUGCCGCCGGUGGUAAAAAAGAUCGGAAGAGCACACGUCU [U7G U8C G9A U10A U11A C12A C13A] | 1.21
GGGUCGGCAAAAUAUAAUCGCGUGGAUAUGGCACGCAAGUUUCUACCGGGCACCGUAAAUGUCCGACUGGAGCCGUUCGGGCGGCUAUAAACAGACCUCAGGCCCGAAGCGUGGCGGCACCUGCCGCCGGUGGUAAAAAAGAUCGGAAGAGCACACGUCU [U7G U8C G9A U10A U11A C12A C13U] | 1.17
GGGUCGGCAAAAGAUAAUCGCGUGGAUAUGGCACGCAAGUUUCUACCGGGCACCGUAAAUGUCCGACUGGAGCCGUUCGGGCGGCUAUAAACAGACCUCAGGCCCGAAGCGUGGCGGCACCUGCCGCCGGUGGUAAAAAAGAUCGGAAGAGCACACGUCU [U7G U8C G9A U10A U11A C12A C13G] | 1.12
GGGUCGGCAAAACAUAAUCGCGUGGAUAUGGCACGCAAGUUUCUACCGGGCACCGUAAAUGUCCGACUGGAGCCGUUCGGGCGGCUAUAAACAGACCUCAGGCCCGAAGCGUGGCGGCACCUGCCGCCGGUGGUAAAAAAGAUCGGAAGAGCACACGUCU [U7G U8C G9A U10A U11A C12A] | 1.28
GGGUCGGCAAAGCAUAAUCGCGUGGAUAUGGCACGCAAGUUUCUACCGGGCACCGUAAAUGUCCGACUGGAGCCGUUCGGGCGGCUAUAAACAGACCUCAGGCCCGAAGCGUGGCGGCACCUGCCGCCGGUGGUAAAAAAGAUCGGAAGAGCACACGUCU [U7G U8C G9A U10A U11A C12G] | 1.22
GGGUCGGCAAAGGAUAAUCGCGUGGAUAUGGCACGCAAGUUUCUACCGGGCACCGUAAAUGUCCGACUGGAGCCGUUCGGGCGGCUAUAAACAGACCUCAGGCCCGAAGCGUGGCGGCACCUGCCGCCGGUGGUAAAAAAGAUCGGAAGAGCACACGUCU [U7G U8C G9A U10A U11A C12G C13G] | 1.13
GGGUCGGCAAAGUAUAAUCGCGUGGAUAUGGCACGCAAGUUUCUACCGGGCACCGUAAAUGUCCGACUGGAGCCGUUCGGGCGGCUAUAAACAGACCUCAGGCCCGAAGCGUGGCGGCACCUGCCGCCGGUGGUAAAAAAGAUCGGAAGAGCACACGUCU [U7G U8C G9A U10A U11A C12G C13U] | 1.15
GGGUCGGCAAAGAAUAAUCGCGUGGAUAUGGCACGCAAGUUUCUACCGGGCACCGUAAAUGUCCGACUGGAGCCGUUCGGGCGGCUAUAAACAGACCUCAGGCCCGAAGCGUGGCGGCACCUGCCGCCGGUGGUAAAAAAGAUCGGAAGAGCACACGUCU [U7G U8C G9A U10A U11A C12G C13A] | 1.13
GGGUCGGCAAUCAAUAAUCGCGUGGAUAUGGCACGCAAGUUUCUACCGGGCACCGUAAAUGUCCGACUGGAGCCGUUCGGGCGGCUAUAAACAGACCUCAGGCCCGAAGCGUGGCGGCACCUGCCGCCGGUGGUAAAAAAGAUCGGAAGAGCACACGUCU [U7G U8C G9A U10A C13A] | 1.19
GGGUCGGCAAUCUAUAAUCGCGUGGAUAUGGCACGCAAGUUUCUACCGGGCACCGUAAAUGUCCGACUGGAGCCGUUCGGGCGGCUAUAAACAGACCUCAGGCCCGAAGCGUGGCGGCACCUGCCGCCGGUGGUAAAAAAGAUCGGAAGAGCACACGUCU [U7G U8C G9A U10A C13U] | 1.83
GGGUCGGCAAUCGAUAAUCGCGUGGAUAUGGCACGCAAGUUUCUACCGGGCACCGUAAAUGUCCGACUGGAGCCGUUCGGGCGGCUAUAAACAGACCUCAGGCCCGAAGCGUGGCGGCACCUGCCGCCGGUGGUAAAAAAGAUCGGAAGAGCACACGUCU [U7G U8C G9A U10A C13G] | 1.06
GGGUCGGCAAUGUAUAAUCGCGUGGAUAUGGCACGCAAGUUUCUACCGGGCACCGUAAAUGUCCGACUGGAGCCGUUCGGGCGGCUAUAAACAGACCUCAGGCCCGAAGCGUGGCGGCACCUGCCGCCGGUGGUAAAAAAGAUCGGAAGAGCACACGUCU [U7G U8C G9A U10A C12G C13U] | 1.15
GGGUCGGCAAUGGAUAAUCGCGUGGAUAUGGCACGCAAGUUUCUACCGGGCACCGUAAAUGUCCGACUGGAGCCGUUCGGGCGGCUAUAAACAGACCUCAGGCCCGAAGCGUGGCGGCACCUGCCGCCGGUGGUAAAAAAGAUCGGAAGAGCACACGUCU [U7G U8C G9A U10A C12G C13G] | 1.08
